Laboratory results from US20240117018A1.

How the values were obtained:
Assay in all cases: cell-based or functional assay
[1] = biological target: HIV-1 Env of pseudovirus 235-47 (HIV-1)
[2] = biological target: HIV-1 Env of pseudovirus T255-34 (HIV-1)
[3] = biological target: HIV-1 Env of pseudovirus 191955_A11 (HIV-1)
[4] = biological target: HIV-1 Env of pseudovirus 9004SS_A3_4 (HIV-1)
[5] = biological target: HIV-1 Env of pseudovirus 211-9 (HIV-1)
[6] = biological target: HIV-1 Env of pseudovirus 6041.v3.c23 (HIV-1)
[7] = biological target: HIV-1 Env of pseudovirus T278-50 (HIV-1)
[8] = biological target: HIV-1 Env of pseudovirus P0402_c2_11 (HIV-1)
[9] = biological target: HIV-1 Env of pseudovirus BJOX025000.01.1 (HIV-1)
[10] = biological target: HIV-1 Env of pseudovirus BJOX009000.02.4 (HIV-1)
[11] = biological target: HIV-1 Env of pseudovirus R3265.c06 (HIV-1)
[12] = biological target: HIV-1 Env of pseudovirus 6545.v4.c1 (HIV-1)
[13] = biological target: HIV-1 Env of pseudovirus A07412M1.vrc12 (HIV-1)
[14] = biological target: HIV-1 Env of pseudovirus 3817.v2.c59 (HIV-1)
[15] = biological target: HIV-1 Env of pseudovirus 231966.c02 (HIV-1)
[16] = biological target: HIV-1 Env of pseudovirus 6952.v1.c20 (HIV-1)
[17] = biological target: HIV-1 Env of pseudovirus BJOX028000.10.3 (HIV-1)
[18] = biological target: HIV-1 Env of pseudovirus C1080.c03 (HIV-1)
[19] = biological target: HIV-1 Env of pseudovirus R2184.c04 (HIV-1)
[20] = biological target: HIV-1 Env of pseudovirus 231965.c01 (HIV-1)
[21] = biological target: HIV-1 Env of pseudovirus X2088_c9 (HIV-1)
[22] = biological target: HIV-1 Env of pseudovirus 6540.v4.c1 (HIV-1)
[23] = biological target: HIV-1 Env of pseudovirus X2131_C1_B5 (HIV-1)
[24] = biological target: HIV-1 Env of pseudovirus X1193_c1 (HIV-1)
[25] = biological target: HIV-1 Env of pseudovirus X1254_c3 (HIV-1)
[26] = biological target: HIV-1 Env of pseudovirus X1632_S2_B10 (HIV-1)
[27] = biological target: HIV-1 Env of pseudovirus 89-F1_2_25 (HIV-1)
[28] = biological target: HIV-1 Env of pseudovirus BJOX015000.11.5 (HIV-1)
[29] = biological target: HIV-1 Env of pseudovirus T257-31 (HIV-1)
[30] = biological target: HIV-1 Env of pseudovirus C3347.c11 (HIV-1)
[31] = biological target: HIV-1 Env of pseudovirus 6811.v7.c18 (HIV-1)
[32] = biological target: HIV-1 Env of pseudovirus 0815.v3.c3 (HIV-1)
[33] = biological target: HIV-1 Env of pseudovirus 3016.v5.c45 (HIV-1)
[34] = biological target: HIV-1 Env of pseudovirus 263-8 (HIV-1)
[35] = biological target: HIV-1 Env of pseudovirus BJOX010000.06.2 (HIV-1)
[36] = biological target: HIV-1 Env of pseudovirus R1166.c01 (HIV-1)

## N49P9 (antibody)
[1]
  neutralization IC50: 0.072 µg/mL
  neutralization IC80: 0.271 µg/mL
  neutralization MPI: 98
[2]
  neutralization IC50: 0.051 µg/mL
  neutralization IC80: 0.247 µg/mL
  neutralization MPI: 100
[3]
  neutralization IC50: > 50 µg/mL
  neutralization IC80: > 50 µg/mL
  neutralization MPI: 35
[4]
  neutralization IC50: 0.175 µg/mL
  neutralization IC80: 0.751 µg/mL
  neutralization MPI: 100
[5]
  neutralization IC50: 0.136 µg/mL
  neutralization IC80: 0.485 µg/mL
  neutralization MPI: 100
[6]
  neutralization IC50: 0.089 µg/mL
  neutralization IC80: 0.777 µg/mL
  neutralization MPI: 95
[7]
  neutralization IC50: > 50 µg/mL
  neutralization IC80: > 50 µg/mL
  neutralization MPI: 25
[8]
  neutralization IC50: 0.028 µg/mL
  neutralization IC80: 0.085 µg/mL
  neutralization MPI: 100
[9]
  neutralization IC50: 0.055 µg/mL
  neutralization IC80: 0.252 µg/mL
  neutralization MPI: 100
[10]
  neutralization IC50: 0.727 µg/mL
  neutralization IC80: 3.29 µg/mL
  neutralization MPI: 100
[11]
  neutralization IC50: 0.135 µg/mL
  neutralization IC80: 0.812 µg/mL
  neutralization MPI: 100
[12]
  neutralization IC50: > 50 µg/mL
  neutralization IC80: > 50 µg/mL
  neutralization MPI: 20
[13]
  neutralization IC50: 0.142 µg/mL
  neutralization IC80: 0.636 µg/mL
  neutralization MPI: 100
[14]
  neutralization IC50: 1.09 µg/mL
  neutralization IC80: 5.86 µg/mL
  neutralization MPI: 100
[15]
  neutralization IC50: 0.074 µg/mL
  neutralization IC80: 0.244 µg/mL
  neutralization MPI: 100
[16]
  neutralization IC50: 0.095 µg/mL
  neutralization IC80: 0.258 µg/mL
  neutralization MPI: 100
[17]
  neutralization IC50: 0.031 µg/mL
  neutralization IC80: 0.134 µg/mL
  neutralization MPI: 100
[18]
  neutralization IC50: 0.119 µg/mL
  neutralization IC80: 0.575 µg/mL
  neutralization MPI: 100
[19]
  neutralization IC50: 0.015 µg/mL
  neutralization IC80: 0.034 µg/mL
  neutralization MPI: 100
[20]
  neutralization IC50: 0.253 µg/mL
  neutralization IC80: 1.16 µg/mL
  neutralization MPI: 100
[21]
  neutralization IC50: 0.07 µg/mL
  neutralization IC80: 0.252 µg/mL
  neutralization MPI: 100
[22]
  neutralization IC50: > 50 µg/mL
  neutralization IC80: > 50 µg/mL
  neutralization MPI: 49
[23]
  neutralization IC50: 0.082 µg/mL
  neutralization IC80: 0.274 µg/mL
  neutralization MPI: 100
[24]
  neutralization IC50: 0.025 µg/mL
  neutralization IC80: 0.081 µg/mL
  neutralization MPI: 100
[25]
  neutralization IC50: 0.04 µg/mL
  neutralization IC80: 0.104 µg/mL
  neutralization MPI: 100
[26]
  neutralization IC50: 46.7 µg/mL
  neutralization IC80: > 50 µg/mL
  neutralization MPI: 51
[27]
  neutralization IC50: > 50 µg/mL
  neutralization IC80: > 50 µg/mL
  neutralization MPI: 23
[28]
  neutralization IC50: 0.089 µg/mL
  neutralization IC80: 0.375 µg/mL
  neutralization MPI: 100
[29]
  neutralization IC50: 0.216 µg/mL
  neutralization IC80: 0.821 µg/mL
  neutralization MPI: 100
[30]
  neutralization IC50: 0.023 µg/mL
  neutralization IC80: 0.065 µg/mL
  neutralization MPI: 100
[31]
  neutralization IC50: 0.249 µg/mL
  neutralization IC80: 1.2 µg/mL
  neutralization MPI: 99
[32]
  neutralization IC50: 0.02 µg/mL
  neutralization IC80: 0.057 µg/mL
  neutralization MPI: 100
[33]
  neutralization IC50: 0.06 µg/mL
  neutralization IC80: 0.209 µg/mL
  neutralization MPI: 100
[34]
  neutralization IC50: 0.032 µg/mL
  neutralization IC80: 0.161 µg/mL
  neutralization MPI: 100
[35]
  neutralization IC50: 0.482 µg/mL
  neutralization IC80: 2.34 µg/mL
  neutralization MPI: 100
[36]
  neutralization IC50: 0.064 µg/mL
  neutralization IC80: 0.223 µg/mL
  neutralization MPI: 100

## PGT151 (antibody)
[1]
  IC50 (Titer in TZM.bl cells): 38.1 µg/mL
  IC80 (Titer in TZM.bl cells): > 50 µg/mL
[2]
  IC50 (Titer in TZM.bl cells): 0.002 µg/mL
  IC80 (Titer in TZM.bl cells): 0.01 µg/mL
[3]
  neutralization IC50: 0.004 µg/mL
  neutralization IC80: 0.014 µg/mL
[4]
  neutralization IC50: 0.003 µg/mL
  neutralization IC80: 0.015 µg/mL
[5]
  IC50 (Titer in TZM.bl cells): 0.002 µg/mL
  IC80 (Titer in TZM.bl cells): 0.01 µg/mL
[6]
  IC50 (Titer in TZM.bl cells): 0.004 µg/mL
  IC80 (Titer in TZM.bl cells): 0.024 µg/mL
[7]
  IC50 (Titer in TZM.bl cells): 0.13 µg/mL
  IC80 (Titer in TZM.bl cells): > 50 µg/mL
[8]
  IC50 (Titer in TZM.bl cells): < 0.001 µg/mL
  IC80 (Titer in TZM.bl cells): 0.004 µg/mL
[9]
  IC50 (Titer in TZM.bl cells): > 50 µg/mL
  IC80 (Titer in TZM.bl cells): > 50 µg/mL
[10]
  IC50 (Titer in TZM.bl cells): > 50 µg/mL
  IC80 (Titer in TZM.bl cells): > 50 µg/mL
[11]
  IC50 (Titer in TZM.bl cells): > 50 µg/mL
  IC80 (Titer in TZM.bl cells): > 50 µg/mL
[12]
  IC50 (Titer in TZM.bl cells): 0.004 µg/mL
  IC80 (Titer in TZM.bl cells): 0.026 µg/mL
[13]
  IC50 (Titer in TZM.bl cells): 0.246 µg/mL
  IC80 (Titer in TZM.bl cells): > 50 µg/mL
[14]
  IC50 (Titer in TZM.bl cells): > 50 µg/mL
  IC80 (Titer in TZM.bl cells): > 50 µg/mL
[15]
  IC50 (Titer in TZM.bl cells): 0.025 µg/mL
  IC80 (Titer in TZM.bl cells): 0.183 µg/mL
[16]
  IC50 (Titer in TZM.bl cells): 49.2 µg/mL
  IC80 (Titer in TZM.bl cells): > 50 µg/mL
[17]
  IC50 (Titer in TZM.bl cells): > 50 µg/mL
  IC80 (Titer in TZM.bl cells): > 50 µg/mL
[18]
  IC50 (Titer in TZM.bl cells): > 50 µg/mL
  IC80 (Titer in TZM.bl cells): > 50 µg/mL
[19]
  IC50 (Titer in TZM.bl cells): > 50 µg/mL
  IC80 (Titer in TZM.bl cells): > 50 µg/mL
[20]
  IC50 (Titer in TZM.bl cells): < 0.001 µg/mL
  IC80 (Titer in TZM.bl cells): 0.012 µg/mL
[21]
  IC50 (Titer in TZM.bl cells): > 50 µg/mL
  IC80 (Titer in TZM.bl cells): > 50 µg/mL
[22]
  IC50 (Titer in TZM.bl cells): 0.006 µg/mL
  IC80 (Titer in TZM.bl cells): 0.03 µg/mL
[23]
  IC50 (Titer in TZM.bl cells): 0.007 µg/mL
  IC80 (Titer in TZM.bl cells): 0.036 µg/mL
[24]
  IC50 (Titer in TZM.bl cells): 0.004 µg/mL
  IC80 (Titer in TZM.bl cells): 0.027 µg/mL
[25]
  IC50 (Titer in TZM.bl cells): 0.309 µg/mL
  IC80 (Titer in TZM.bl cells): > 50 µg/mL
[26]
  IC50 (Titer in TZM.bl cells): 0.061 µg/mL
  IC80 (Titer in TZM.bl cells): > 50 µg/mL
[27]
  IC50 (Titer in TZM.bl cells): 22.9 µg/mL
  IC80 (Titer in TZM.bl cells): > 50 µg/mL
[28]
  IC50 (Titer in TZM.bl cells): > 50 µg/mL
  IC80 (Titer in TZM.bl cells): > 50 µg/mL
[29]
  neutralization IC50: 0.003 µg/mL
  neutralization IC80: 0.01 µg/mL
[30]
  IC50 (Titer in TZM.bl cells): > 50 µg/mL
  IC80 (Titer in TZM.bl cells): > 50 µg/mL
[31]
  IC50 (Titer in TZM.bl cells): > 50 µg/mL
  IC80 (Titer in TZM.bl cells): > 50 µg/mL
[32]
  IC50 (Titer in TZM.bl cells): > 50 µg/mL
  IC80 (Titer in TZM.bl cells): > 50 µg/mL
[33]
  IC50 (Titer in TZM.bl cells): 0.174 µg/mL
  IC80 (Titer in TZM.bl cells): 40.7 µg/mL
[34]
  neutralization IC50: > 50 µg/mL
  neutralization IC80: > 50 µg/mL
[35]
  IC50 (Titer in TZM.bl cells): > 50 µg/mL
  IC80 (Titer in TZM.bl cells): > 50 µg/mL
[36]
  IC50 (Titer in TZM.bl cells): > 50 µg/mL
  IC80 (Titer in TZM.bl cells): > 50 µg/mL
